# Patent US9301997B2, “Method of vaccination for limiting articular inflammation in rheumatoid arthritis and multiple sclerosis by administering IL-23 peptides” (PEPTINOV SAS, priority 2009, dated 2016)
# Columns and labels:
# human IL-23 [1] = molecular target: T1, human IL-23 (Homo sapiens, UniProt Q9NPF7); assay: Neutralization assay for human IL-23 (IL-17 secretion by purified mouse splenocytes); type: cell-based; settings: for Neutralization of the biological activity of human IL-23: purified IgG of immunized rabbits, result in words; for Average % neutralization, SD: purified rabbit antibodies at a dilution of 1/20, 1 ng/mL bioactive hIL-23
# T1 sequence (Q9NPF7 20-189): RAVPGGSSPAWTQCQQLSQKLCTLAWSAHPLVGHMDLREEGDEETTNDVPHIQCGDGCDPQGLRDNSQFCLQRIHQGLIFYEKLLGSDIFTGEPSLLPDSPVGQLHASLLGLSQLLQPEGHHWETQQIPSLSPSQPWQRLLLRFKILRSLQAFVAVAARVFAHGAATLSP
# T1 sequence (P29460 23-328 partner): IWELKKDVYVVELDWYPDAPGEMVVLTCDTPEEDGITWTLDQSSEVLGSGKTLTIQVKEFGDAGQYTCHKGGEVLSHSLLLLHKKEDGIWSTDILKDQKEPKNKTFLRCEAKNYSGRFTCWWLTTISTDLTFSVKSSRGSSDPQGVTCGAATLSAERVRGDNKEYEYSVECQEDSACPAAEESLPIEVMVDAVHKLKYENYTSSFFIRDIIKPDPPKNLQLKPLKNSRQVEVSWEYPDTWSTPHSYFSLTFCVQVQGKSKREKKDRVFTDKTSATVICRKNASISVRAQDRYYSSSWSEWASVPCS
# Protocol: The neutralization capacity of the purified total IgG fraction derived from the 4 immunized rabbits of example 1 was then tested in a neutralization assay for human IL-23. The test is based on the fact that purified mouse splenocytes secrete IL-17 in a dose dependent fashion, in response to the stimulation with bioactive human IL-23 (cf. FIG. 2). On the x-axis one can see the various dilutions of the IgG tested and on the y-axis the production of IL-17 as an optical density value. One sees that the IgG fraction of rabbits immunized against the peptide neutralize the biological activity of human IL-23 in a dose-dependent fashion. Each bar represents the mean of the tests performed with the 4 purified antibodies; the standard deviation is also indicated. The experimental conditions comprise two negative controls (no human IL-23 and no inhibitor) and a positive control with an anti-hIL-23 neutralizing antibody sold from the company R&D Systems (# ref: AF1716).
# (§1) Four New Zealand rabbits were immunized with the cyclised peptide Y-C-KGE PAL LPD SP-C derived from the murine IL-23, similarly as in the protocol described in Example 1. The peptide was coupled with KLH via BDB and a supplementary tyrosine. The sera of the animals were purified by affinity column against protein A and the purified antibodies were tested in ELISA and in neutralisation assays. For ELISA, plates were coated either with murine or with human IL-23 and individual sera were tested at different dilutions to determine the Titer50. The titer corresponds to the dilution corresponding yielding an OD value at 50% of the maximal OD score (obtained for the smallest dilution, 1/50e). In parallel, different dilutions of the purified rabbit antibodies were tested on IL-23 neutralisation assays, similarly as in Examples 2, 3, and 4. Table 1 presents the average neutralisation obtained for the 4 purified antibodies rabbit at a dilution of 1/20 and in the presence of 1 ng/mL of bioactive mIL-23 or hIL-23.
# murine IL-23 [2] = molecular target: T2, murine IL-23 (Mus musculus, UniProt Q9EQ14); assay: Neutralization assay for murine IL-23 (IL-17 secretion by purified mouse splenocytes); type: cell-based; settings: purified IgG of immunized rabbits, result in words
# T2 sequence (Q9EQ14 22-196): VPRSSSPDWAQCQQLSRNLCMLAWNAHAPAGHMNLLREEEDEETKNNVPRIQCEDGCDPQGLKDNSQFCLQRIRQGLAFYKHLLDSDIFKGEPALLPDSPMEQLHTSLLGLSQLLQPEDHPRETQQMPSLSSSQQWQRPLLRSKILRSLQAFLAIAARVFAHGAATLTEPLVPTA
# T2 sequence (P43432 23-335 partner): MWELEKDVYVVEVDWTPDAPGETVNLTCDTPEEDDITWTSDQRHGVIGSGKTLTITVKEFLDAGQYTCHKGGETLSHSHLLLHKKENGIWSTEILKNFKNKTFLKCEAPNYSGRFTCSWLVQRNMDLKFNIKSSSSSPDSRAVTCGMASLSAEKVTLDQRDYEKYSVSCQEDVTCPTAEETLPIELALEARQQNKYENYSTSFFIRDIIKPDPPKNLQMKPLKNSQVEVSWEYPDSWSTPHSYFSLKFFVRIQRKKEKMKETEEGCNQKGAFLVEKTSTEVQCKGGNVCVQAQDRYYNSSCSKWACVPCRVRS
# Excerpt: The same IgG fraction from 4 immunized rabbits used in example 2 is used for a test of neutralization of the murine IL-23 cytokine. The test for murine IL-23 is based on the fact that purified mouse splenocytes secrete IL-17 in a dose dependent fashion, in response to the stimulation with bioactive […] IL-23 (cf. FIG. 3). One sees that the IgG fraction of rabbits immunized against the human IL-23 peptide can neutralize the biological activity of murine IL-23 in a dose-dependent fashion. Each bar represents the mean of the tests performed with the 4 purified antibodies; the standard deviation is also indicated. There are two negative controls (no mouse IL-23 and no inhibitor) and a positive control with an anti-murine IL-23 neutralizing antibody sold from the company R&D Systems (# ref: AF1619).
# (§2) Four New Zealand rabbits were immunized with the cyclised peptide Y-C-KGE PAL LPD SP-C derived from the murine IL-23, similarly as in the protocol described in Example 1. The peptide was coupled with KLH via BDB and a supplementary tyrosine. The sera of the animals were purified by affinity column against protein A and the purified antibodies were tested in ELISA and in neutralisation assays. For ELISA, plates were coated either with murine or with human IL-23 and individual sera were tested at different dilutions to determine the Titer50. […]
# [3] = tested on: collagen-induced arthritis; assay: Collagen-induced arthritis mouse model of rheumatoid arthritis, vaccination; type: in vivo; settings: DBA/1 mice
# Excerpt: The collagen-induced arthritis is a well-known model of rheumatoid arthritis, which reproduces the main features characterizing the human disease. The experimental disease is induced in the animal by two successive injections of type II bovine collagen in the tail. Clinical signs of disease occur a few days later, principally marked by a severe articular inflammation and the joint destruction. The articular inflammation can be quantified and reported as clinical scores by the person of the art: a score from 0 (no clinical sign) to 4 (total inflammation) is given for each articulation of each mouse. Groups of 10 mice are compared by the mean value of the scores obtained on […]. Similarly, the articular inflammation and destruction can be observed on histological sections of joints and be reported as histological scores by the person of the art.
# DBA/1 mice (n=10 per treatment group) were vaccinated two weeks before the first injection of collagen either with the cyclised peptide derived from mIL23: C-DSD IFK GEP ALL PDS PME QL-C-Y (coupled with KLH via BDB and an additional tyrosine on the C-terminus), or with a control made of KLH alone, or with PBS alone. The injected dose in each mice corresponded to 100 μg of coupled peptide for the peptide group, and to 100 μg of KLH alone for the KLH control group, all in complete Freund's adjuvant. […]
# [4] = tested on: experimental autoimmune encephalomyelitis; assay: Experimental autoimmune encephalomyelitis mouse model of multiple sclerosis, vaccination; type: in vivo; settings: C57BL/6 mice, 100 μg/animal s.c. 4 times, 30 days follow-up, versus carrier and PBS groups, p=0.0003
# Protocol: The experimental autoimmune encephalomyelitis in mice is a well-known model of multiple sclerosis. Three groups of 12 C57BL/6 mice were injected 4-times (s.c.) either with 1/100 μg/animal of the same peptide derivative of murine IL-23 as in example 9 coupled with KLH and emulsioned in CFA for the initial immunization and IFA (ISA51) for the subsequent boosts, or with 2/the carrier protein prepared in the same conditions, or with 3/PBS alone. The injections took pace at day 0, 15, 30 and 45.
# To induce the experimental disease, mice were immunized (s.c.) at two sites with 200 μg of MOG peptide 35-55 in […] of Complete Freund's Adjuvant (CFA) at day 60. On the same day and after two days, mice were injected (i.p.) with, respectively 75 and 200 ng/mouse, of pertussis toxin (List Biological Laboratories). The mice were then assessed daily for clinical signs of EAE according to the following well-known scoring method (Sinha et al., J. Immunol., 2008): 0, normal; 0.5, limp tail; 1, tail paralysis; 2, mono or paraparesis of the hind limbs; 3, mono or paraplegia of the hind limbs; 4, paraplegia of the forelimb; 5, moribund condition or death. The follow-up was done on a period of 30 days as shown (cf. FIG. 7).
# human IL-23 [5] = molecular target: T1, human IL-23; assay: ELISA of purified rabbit antibodies on plates coated with human IL-23; type: binding; settings: for Recognition of human IL-23 by antibodies raised against the peptide (ELISA): antibodies of immunized rabbits, result in words; for Average Titers50 (ELISA), SD: purified antibodies of rabbits immunized with the KLH-coupled peptide, plate coated with human IL-23, dilution yielding 50% of maximal OD
# Protocol: (§3) Specific-pathogen-free New Zealand rabbits (n=4) are immunized with 100 μg of a peptide derivative of human IL-23 by five immunizations in CFA/IFA at day 0, 14, 28, 56 and 70. The peptide, whose sequence is C-GSD IFT GEP SLL PDS PVG QL-C-Y, was coupled to KLH with BDB. The sera from immunized rabbits were taken at day 82 after initial immunization, and the antibodies were purified by affinity chromatography against protein A. The purified antibodies were tested by ELISA at various dilutions and on a plate coated either by human IL-23 or by murine IL-23 (cf. FIG. 1). The mean OD value of the […] purified sera is given at the various dilutions for the ELISA tests against murine IL-23 (dotted line) and against human IL-23 (regular line).
# as §1
# murine IL-23 [6] = molecular target: T2, murine IL-23; assay: ELISA of purified rabbit antibodies on plates coated with murine IL-23; type: binding; settings: antibodies of immunized rabbits, result in words
# Protocol: as §3, §2
# murine IL-23 [7] = molecular target: T2, murine IL-23; assay: Auto-antibody response against murine IL-23 in immunized mice (serum ELISA); type: in vivo; settings: OF1 mice immunized intra-muscularly, 100 μg/injection, sera tested at 1/500
# Protocol: A peptide of murine IL-23 is coupled to KLH in the presence of a coupling agent (BDB). The peptide has been cyclised thanks to the addition of 2 cysteine residues coupled to BDB through an additional tyrosine; its amino-acid sequence is: C-DSD IFK GEP ALL PDS PME QL-C-Y. The vaccinal composition is injected intra-muscularly […] in ten (10) OF1 mice, at a dose of 100 μg/injection once every 2 weeks at days 0, 15, 30, 45. The sera of the animals are taken after the boosts at days 20, 38, 60 and 80 and are tested by ELISA at a dilution of 1/500 and on a coating of murine IL-23. The ELISA results are given as optical density (OD450nm) values. FIG. 5 presents the mean OD450nm value obtained at each time-point for the 10 mice tested. The grey line represents the response of mice immunized with the peptide derivative of IL-23 (triangles). The dotted lines represents the response of control mice immunized with the vehicle (empty grey diamonds), and control mice immunized with the carrier protein only (empty grey squares).
Substance,Neutralization of the biological activity of human IL-23 (human IL-23 [1]),Neutralization of the biological activity of murine IL-23 (murine IL-23 [2]),Recognition of human IL-23 by antibodies raised against the peptide (ELISA) (human IL-23 [5]),Recognition of murine IL-23 by antibodies raised against the peptide (ELISA) (murine IL-23 [6]),"Average Titers50 (ELISA), SD (human IL-23 [5])","Average % neutralization, SD (human IL-23 [1])",also measured
C-DSD IFK GEP ALL PDS PME QL-C,cross-neutralize hIL-23,can neutralize mIL-23,,,,,
C-DSD IFK GEP ALL PDS PME QL-C-Y,,,,,,,"Clinical scores of articular inflammation ([3]; 100 μg coupled peptide in CFA plus boosts in IFA, followed until day 80, versus KLH alone or PBS): statistically significant protection at the late stage of disease; Histological scores of articular inflammation and destruction ([3]; histological sections of joints): limits the extent of both the articular inflammation and destruction at the histological level; Clinical signs of EAE (disease activity score) [4]: statistically significant lower disease activity than the two control groups"
"C-GSD IFT GEP SLL PDS PVG QL-C-Y (GSDIFTGEPSLLPDSPVGQL; not fully specified; terminal cysteines and C-terminal tyrosine; listed as Homo Sapiens) [peptide derivative of human IL-23 subunit p19, region Gly105 to Leu124, with two terminal cysteines and a C-terminal tyrosine]",could neutralize the biological activity of the human cytokine,neutralize its biological activity,could generate antibodies recognizing the whole human IL-23 cytokine,could recognize the murine IL-23 cytokine,,,
"C-LPD SP-C-Y (CLPDSPCY; sub-sequence of seq ID NO2 with N-terminal cystein and C-terminal cystein and tyrosin) [CLPDSPC-Y, peptide 2 derived from hIL-23]",,,,,2287 ± 175,39 ± 11%,
"CTGEPSC (sub-sequence of seq ID NO2 with C-terminal and N-terminal cystein) [C-TGE PS-C, peptide 1 derived from hIL-23]",,,,,1758 ± 153,35 ± 7%,
DSD IFK GEP ALL PDS PME QL (DSDIFKGEPALLPDSPMEQL; Mus Musculus) [peptide derivative of mouse IL-23p19],,,could recognize both the murine and human IL-23 cytokines,could recognize both the murine and human IL-23 cytokines,,,Generation of anti-mIL-23 antibodies in mice (murine IL-23 [7]): anti-mIL-23 Abs could be generated in mice
